Source: patent US20030134799A1
Read-outs that look alike come from different tables or passages of the source.

Columns and labels:
[1] = target: NMDA receptor of well-washed rat forebrain membranes (rat) (UniProt Q9R1M7); experiment: cell-based or functional assay
[2] = target: NMDA receptor of primary cultures of rat cerebellar granule cells (rat); experiment: cell-based or functional assay
[3] = target: NMDA receptor of well-washed rat forebrain membranes (rat) (UniProt Q9R1M7)
[4] = target: NMDA receptor of well-washed rat forebrain membranes (rat) (UniProt Q9R1M7); experiment: displacement of [3H]ifenprodil, polyamine-sensitive site

Chain of NMDA receptor of well-washed rat forebrain membranes (rat) (Q9R1M7 24-1135): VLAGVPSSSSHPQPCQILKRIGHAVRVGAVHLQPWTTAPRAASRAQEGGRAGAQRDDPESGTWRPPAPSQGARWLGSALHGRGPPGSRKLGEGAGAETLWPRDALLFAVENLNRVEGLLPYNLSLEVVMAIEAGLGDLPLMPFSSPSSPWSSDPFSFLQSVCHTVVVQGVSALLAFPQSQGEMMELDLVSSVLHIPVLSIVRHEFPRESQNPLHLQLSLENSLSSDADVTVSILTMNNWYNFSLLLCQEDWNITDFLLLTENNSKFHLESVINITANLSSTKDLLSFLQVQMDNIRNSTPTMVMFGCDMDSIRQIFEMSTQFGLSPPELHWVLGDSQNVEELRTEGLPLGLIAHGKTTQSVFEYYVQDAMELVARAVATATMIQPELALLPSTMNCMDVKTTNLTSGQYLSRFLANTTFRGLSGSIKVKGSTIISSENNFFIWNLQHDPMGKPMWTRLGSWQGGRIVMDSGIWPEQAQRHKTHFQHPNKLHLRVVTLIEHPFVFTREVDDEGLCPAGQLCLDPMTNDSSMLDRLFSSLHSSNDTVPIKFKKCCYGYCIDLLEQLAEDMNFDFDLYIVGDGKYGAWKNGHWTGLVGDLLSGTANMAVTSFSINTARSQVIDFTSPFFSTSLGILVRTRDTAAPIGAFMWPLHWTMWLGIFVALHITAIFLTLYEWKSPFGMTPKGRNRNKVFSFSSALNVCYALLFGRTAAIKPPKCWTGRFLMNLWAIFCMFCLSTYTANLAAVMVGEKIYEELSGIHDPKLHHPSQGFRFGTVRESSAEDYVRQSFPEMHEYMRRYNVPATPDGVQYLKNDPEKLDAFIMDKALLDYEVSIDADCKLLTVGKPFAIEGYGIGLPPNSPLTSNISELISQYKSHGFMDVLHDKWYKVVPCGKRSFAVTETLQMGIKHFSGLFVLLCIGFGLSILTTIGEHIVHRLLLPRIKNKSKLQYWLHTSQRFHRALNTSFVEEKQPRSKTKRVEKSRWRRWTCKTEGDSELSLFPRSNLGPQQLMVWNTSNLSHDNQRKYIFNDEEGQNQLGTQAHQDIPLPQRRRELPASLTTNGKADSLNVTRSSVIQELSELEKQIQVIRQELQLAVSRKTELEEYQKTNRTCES

Substance | % Inh, spermine-enhanced [3H]MK-801 binding [1] [%] | % Sti, [3H]MK-801 binding without spermine [1] [%] | IC (µM), inhibition of spermine-enhanced [3H]MK-801 binding [1] [µM] | also measured
Ac-Con-G (peptide) | 0 | 0 |  | 
Ac-Tyr^o-Con-G (peptide) | 73 | 0 | 18.3 | 
Ala3-Con-G (peptide) | 34 | 0 | 1.8 | 
Ala4-Con-G (peptide) | 0 | 0 |  | 
Ala7,10,14-Con-G (peptide) | 100 | 0 | 0.5 | 
Ala7-Con-G (peptide) | 100 | 0 | 0.046 | IC50, antagonism of Gly-stimulated [3H]MK-801 binding, representative experiment [1]: 625 nM; IC50, inhibition of spermine-enhanced [3H]MK-801 binding [1]: 45 nM; IC50, inhibition of spermine-enhanced [3H]MK-801 binding, typical experiment [1]: 50 nM; IC50, reduction of Gly stimulated [3H]MK-801 binding [1]: 500 nM; IC50, reduction of spermine stimulated [3H]MK-801 binding [1]: 45 nM; potency against spermine relative to Con-G [1]: 4 fold; IC50, inhibition of NMDA-stimulated increases in cyclic GMP formation [2]: 77 nM; potency in the cyclic GMP assay relative to Con-G [2]: 4 fold; IC50 [3]: > 2500 nM; IC50 [4]: 2500 nM
Ala10-Con-G (peptide) | 100 | 0 | 1.1 | 
Ala14-Con-G (peptide) | 100 | 0 | 0.16 | 
Asn(GlcNAc)^o-Con-G (peptide) | 38 | 0 | 8.8 | 
Asn^o-Con-G (peptide) | 83 | 0 | 8.7 | 
Con-G(1-5) (peptide) | 50 | 0 | 7.43 | 
Con-G(12-15) (peptide) | 0 | 20 |  | EC (µM), stimulation of [3H]MK-801 binding without spermine [1]: 69.8 µM
Con-G(12-17) (peptide) | 0 | 20 |  | EC (µM), stimulation of [3H]MK-801 binding without spermine [1]: 58 µM
Con-G(14-17) (peptide) | 0 | 61 |  | EC (µM), stimulation of [3H]MK-801 binding without spermine [1]: 1.3 µM
Con-G(15-17) (peptide) | 0 | 20 |  | EC (µM), stimulation of [3H]MK-801 binding without spermine [1]: 61.7 µM
Con-G-OH (peptide) | 0 | 0 |  | 
ConG(1-5)(14-17) (peptide) | 15 | 0 | 100 | 
ConG(1-5)AA(14-17) (peptide) |  | 0 |  | 
ConG(1-5)AAAA(14-17) (peptide) |  | 0 |  | 
ConG(1-5)GG(14-17) (peptide) |  | 0 |  | 
ConG(1-5)GGGG(14-17) (peptide) |  | 0 |  | 
ConG(1-6)A5(14-17) (peptide) |  | 0 |  | 
ConG(1-6)A7(14-17) (peptide) |  | 0 |  | 
D-Glu3,4,7,10,14-Con-G (peptide) | 0 | 30 |  | EC (µM), stimulation of [3H]MK-801 binding without spermine [1]: 5.8 µM
Glu3,4,7,10,14-Con-G (peptide) | 22 | 79 | 8.5 | EC (µM), stimulation of [3H]MK-801 binding without spermine [1]: 6.7 µM
Glu4-Con-G (peptide) | 0 | 0 |  | 
Glu7,10,14-Con-G (peptide) | 70 | 0 | > 5 | 

Substance | % Inh, spermine-enhanced [3H]MK-801 binding [1] [%] | % Sti, [3H]MK-801 binding without spermine [1] [%] | IC (µM), inhibition of spermine-enhanced [3H]MK-801 binding [1] [µM] | also measured
Glu10,14-Con-G(9-17) (peptide) | 0 | 0 |  | 
Glu14-Con-G(12-17) (peptide) | 0 | 30 |  | EC (µM), stimulation of [3H]MK-801 binding without spermine [1]: 47 µM
Glu 3,4,7,10,14-Con-G(2-17) (peptide) | 70 | 33 | 5.4 | EC (µM), stimulation of [3H]MK-801 binding without spermine [1]: 0.9 µM
Glu 7,10,14-Con-G(6-17) (peptide) | 0 | 0 |  | 
Phe(pCl)^o-Con-G (peptide) | 0 | 0 |  | 
Phe^o-Con-G (peptide) | 51 | 53 | 6.1 | EC (µM), stimulation of [3H]MK-801 binding without spermine [1]: 6.8 µM
Ser3-Con-G (peptide) | 23 | 62 | 3.6 | EC (µM), stimulation of [3H]MK-801 binding without spermine [1]: 8.4 µM
Ser4-Con-G (peptide) | 0 | 0 |  | 
Ser7-Con-G (peptide) | 100 | 0 | 0.25 | 
Ser10-Con-G (peptide) | 100 | 0 | 1.8 | 
Ser14-Con-G (peptide) | 100 | 0 | 0.16 | 
Ser(p)3-Con-G (peptide) | 34 | 68 | 0.9 | EC (µM), stimulation of [3H]MK-801 binding without spermine [1]: 3.5 µM
Ser(p)4-Con-G (peptide) | 0 | 0 |  | 
Ser(p)7-Con-G (peptide) | 50 | 0 | 1.04 | 
Ser(p)10-Con-G (peptide) | 100 | 0 | 0.56 | 
Ser(p)14-Con-G (peptide) | 31 | 0 | 1.12 | 
Ser^o-Con-G (peptide) | 41 | 0 | 6.8 | 
Tyr3-Con-G (peptide) | 0 | 0 |  | 
Tyr7-Con-G (peptide) | 100 | 0 | 0.5 | 
Tyr(oMe)^o-Con-G (peptide) | 0 | 0 |  | 
Tyr(p)^o-Con-G (peptide) | 0 | 0 |  | 
Tyr^o-Con-G (peptide) | 0 | 0 |  | 
Tyr^o-Glu3,4,7,10,14-Con-G (peptide) | 0 | 31 |  | EC (µM), stimulation of [3H]MK-801 binding without spermine [1]: 2.7 µM
di-iodo-Tyr7-Con-G (peptide) | 100 | 0 | 0.5 | 
iodo-Tyr7-Con-G (peptide) | 100 | 0 | 0.5 | 
tBu-Tyr^o-Con-G (peptide) | 29 | 69 | 1.5 | EC (µM), stimulation of [3H]MK-801 binding without spermine [1]: 1 µM
